{
  "source": "the supplement of paper PMC9170038",
  "tested_on": "K4 kissing-loop RNA reporter",
  "test": "apparent KD of K4 kissing-loop reporter; higher = weaker reporter binding",
  "details": "Eterna round: R107",
  "protocol": "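RNA-MaP round R107: designed RNA switches with theophylline, tryptophan, arginine or FMN aptamers are transcribed on-chip within common flanks. They are titrated with a labelled K4 kissing-loop RNA reporter in RNA-MaP buffer (100 mM Tris pH 7.5, 80 mM KCl, 4 mM MgCl2), without ligand or with the indicated ligand. Median apparent KD per design.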",
  "key": {"[1]": {"details": "input ligand: theophylline 20 uM"}, "[2]": {"details": "input ligand: tryptophan 2.4 mM"}},
  "data": [
    {"sequence": "GCUAUGGUAGGAAGGAGCGCGGACGAUAUUUAUCGAGUGAUGUUCGAUUAAUUAAUUUUAACGCAGGUAGGUCGCCUACUAUAGC [Arginine B K4 28]", "values": [
      {"measurement": "apparent KD of K4 kissing-loop reporter", "setting": "input ligand: FMN 200 uM", "result": 135, "unit": "nM"},
      {"measurement": "apparent KD of K4 kissing-loop reporter", "setting": "input ligand: arginine 13.2 mM", "result": 82.2, "unit": "nM"},
      {"measurement": "apparent KD of K4 kissing-loop reporter", "setting": "input ligand: none", "result": 105, "unit": "nM"},
      {"measurement": "apparent KD of K4 kissing-loop reporter", "setting": "[1]", "result": 88.2, "unit": "nM"},
      {"measurement": "apparent KD of K4 kissing-loop reporter", "setting": "[2]", "result": 106, "unit": "nM"}
    ]},
    {"sequence": "GGAACUACGACGGCCGCCACUCUGUAUCCCAACGUUAAGGUCCUAACUGCAAGUGAUGUUUGUGCGAGGACCGGGUCUCCCUUGC [theeternabot_exclusion_KL_Trp_B_30]", "values": [
      {"measurement": "apparent KD of K4 kissing-loop reporter", "setting": "input ligand: FMN 200 uM", "result": 258, "unit": "nM"},
      {"measurement": "apparent KD of K4 kissing-loop reporter", "setting": "input ligand: arginine 13.2 mM", "result": 213, "unit": "nM"},
      {"measurement": "apparent KD of K4 kissing-loop reporter", "setting": "input ligand: none", "result": 272, "unit": "nM"},
      {"measurement": "apparent KD of K4 kissing-loop reporter", "setting": "[1]", "result": 218, "unit": "nM"},
      {"measurement": "apparent KD of K4 kissing-loop reporter", "setting": "[2]", "result": 217, "unit": "nM"}
    ]},
    {"sequence": "GGACGACAGUCGGCCGCCACUCACAGCAGCCAGUGAUGUUGGAUUGUAGCGGAGUGAUGUUUCGCGAGGACCGGGACUGCAGUCC [Same State Tryptophan B GF 14]", "values": [
      {"measurement": "apparent KD of K4 kissing-loop reporter", "setting": "input ligand: FMN 200 uM", "result": 190, "unit": "nM"},
      {"measurement": "apparent KD of K4 kissing-loop reporter", "setting": "input ligand: arginine 13.2 mM", "result": 171, "unit": "nM"},
      {"measurement": "apparent KD of K4 kissing-loop reporter", "setting": "input ligand: none", "result": 227, "unit": "nM"},
      {"measurement": "apparent KD of K4 kissing-loop reporter", "setting": "[1]", "result": 226, "unit": "nM"},
      {"measurement": "apparent KD of K4 kissing-loop reporter", "setting": "[2]", "result": 199, "unit": "nM"}
    ]},
    {"sequence": "GGACUCAAAUGUAGUGAUGUUACAAGCGAUACCAGUAUCUAACAUUACCCUUGGCAGCGCGCCCAGCUCAGCAAAUUAGAUAGCG [theeternabot_sameState_KL_Theo_A_43]", "values": [
      {"measurement": "apparent KD of K4 kissing-loop reporter", "setting": "input ligand: FMN 200 uM", "result": 149, "unit": "nM"},
      {"measurement": "apparent KD of K4 kissing-loop reporter", "setting": "input ligand: arginine 13.2 mM", "result": 204, "unit": "nM"},
      {"measurement": "apparent KD of K4 kissing-loop reporter", "setting": "input ligand: none", "result": 178, "unit": "nM"},
      {"measurement": "apparent KD of K4 kissing-loop reporter", "setting": "[1]", "result": 268, "unit": "nM"},
      {"measurement": "apparent KD of K4 kissing-loop reporter", "setting": "[2]", "result": 114, "unit": "nM"}
    ]},
    {"sequence": "GGAGGGAUCUCGGCCGCCACUCAUAAGAAAUGGGCCUCAGGGAUAUAGUGAUGUUAUGUAAAGAAGAGGACCGGGAGAAAGAAGG [ExTryptoB.Dc]", "values": [
      {"measurement": "apparent KD of K4 kissing-loop reporter", "setting": "input ligand: FMN 200 uM", "result": 263, "unit": "nM"},
      {"measurement": "apparent KD of K4 kissing-loop reporter", "setting": "input ligand: arginine 13.2 mM", "result": 245, "unit": "nM"},
      {"measurement": "apparent KD of K4 kissing-loop reporter", "setting": "input ligand: none", "result": 248, "unit": "nM"},
      {"measurement": "apparent KD of K4 kissing-loop reporter", "setting": "[1]", "result": 348, "unit": "nM"},
      {"measurement": "apparent KD of K4 kissing-loop reporter", "setting": "[2]", "result": 175, "unit": "nM"}
    ]},
    {"sequence": "GGAGUUACCUGGGAUACCAGUCGGAGUCUCAGAGCACAGAGUGAUGUUCUGGGAUGUUUCGGCCCUUGGCAGCUCUGGGACUCCA [#2 Exclusion - Theophylline B Attempt #14 (HarryS)]", "values": [
      {"measurement": "apparent KD of K4 kissing-loop reporter", "setting": "input ligand: FMN 200 uM", "result": 386, "unit": "nM"},
      {"measurement": "apparent KD of K4 kissing-loop reporter", "setting": "input ligand: arginine 13.2 mM", "result": 359, "unit": "nM"},
      {"measurement": "apparent KD of K4 kissing-loop reporter", "setting": "input ligand: none", "result": 403, "unit": "nM"},
      {"measurement": "apparent KD of K4 kissing-loop reporter", "setting": "[1]", "result": 265, "unit": "nM"},
      {"measurement": "apparent KD of K4 kissing-loop reporter", "setting": "[2]", "result": 351, "unit": "nM"}
    ]},
    {"sequence": "GGAUAGGACAAAGGAUAUGGGCUAGGCAAGAAUAACUUGUCUAGCAAAUCCAUGAGGAGUGAUGUUCCAGAAGGUUGUCCUAUCG [FmnBX 1 A11+U75]", "values": [
      {"measurement": "apparent KD of K4 kissing-loop reporter", "setting": "input ligand: FMN 200 uM", "result": 624, "unit": "nM"},
      {"measurement": "apparent KD of K4 kissing-loop reporter", "setting": "input ligand: arginine 13.2 mM", "result": 116, "unit": "nM"},
      {"measurement": "apparent KD of K4 kissing-loop reporter", "setting": "input ligand: none", "result": 122, "unit": "nM"},
      {"measurement": "apparent KD of K4 kissing-loop reporter", "setting": "[1]", "result": 127, "unit": "nM"},
      {"measurement": "apparent KD of K4 kissing-loop reporter", "setting": "[2]", "result": 107, "unit": "nM"}
    ]},
    {"sequence": "GGAUAGGACAGAGGAUAUCCUAAAGAGGCAAGAAUAACUUGUCUCAAAUGGAUGACCAGUGAUGUUGGAGAAGGCUGUCCUAUCG [FmnBX 6 - #SwitchBubble #StaticStem]", "values": [
      {"measurement": "apparent KD of K4 kissing-loop reporter", "setting": "input ligand: FMN 200 uM", "result": 406, "unit": "nM"},
      {"measurement": "apparent KD of K4 kissing-loop reporter", "setting": "input ligand: arginine 13.2 mM", "result": 194, "unit": "nM"},
      {"measurement": "apparent KD of K4 kissing-loop reporter", "setting": "input ligand: none", "result": 207, "unit": "nM"},
      {"measurement": "apparent KD of K4 kissing-loop reporter", "setting": "[1]", "result": 147, "unit": "nM"},
      {"measurement": "apparent KD of K4 kissing-loop reporter", "setting": "[2]", "result": 178, "unit": "nM"}
    ]},
    {"sequence": "GGAUAGGACAGAGGAUAUGGUAGUGAUGUUACCAAACUGGUUACUCUUGUCAGAAAACUGGCAUUUCCAGAAGGCUGUCCUAUCG [KL-XFMN-B11]", "values": [
      {"measurement": "apparent KD of K4 kissing-loop reporter", "setting": "input ligand: FMN 200 uM", "result": 599, "unit": "nM"},
      {"measurement": "apparent KD of K4 kissing-loop reporter", "setting": "input ligand: arginine 13.2 mM", "result": 75.1, "unit": "nM"},
      {"measurement": "apparent KD of K4 kissing-loop reporter", "setting": "input ligand: none", "result": 92.2, "unit": "nM"},
      {"measurement": "apparent KD of K4 kissing-loop reporter", "setting": "[1]", "result": 84.9, "unit": "nM"},
      {"measurement": "apparent KD of K4 kissing-loop reporter", "setting": "[2]", "result": 104, "unit": "nM"}
    ]},
    {"sequence": "GGAUAGGACUGAGGAUAUGGUAGUGAUGUUACCAAACUGGUUAAACAUGUCAGAAAACUGGCAUGACCAGAAGGCGGUCCUAUCG [FmnBX 27 U10+G76]", "values": [
      {"measurement": "apparent KD of K4 kissing-loop reporter", "setting": "input ligand: FMN 200 uM", "result": 104, "unit": "nM"},
      {"measurement": "apparent KD of K4 kissing-loop reporter", "setting": "input ligand: arginine 13.2 mM", "result": 65.5, "unit": "nM"},
      {"measurement": "apparent KD of K4 kissing-loop reporter", "setting": "input ligand: none", "result": 72.5, "unit": "nM"},
      {"measurement": "apparent KD of K4 kissing-loop reporter", "setting": "[1]", "result": 55.3, "unit": "nM"},
      {"measurement": "apparent KD of K4 kissing-loop reporter", "setting": "[2]", "result": 57.2, "unit": "nM"}
    ]},
    {"sequence": "GGAUAGGAUAGAGGAUAUGGUUUAUGCAGGAAUAACUUAUUGUGUAAAUCCAUAGGGAGUGAUGUUCCAGAAGGCUGUCCUAUCG [MatMod 14 - Jieux - Exclusion - FMN B]", "values": [
      {"measurement": "apparent KD of K4 kissing-loop reporter", "setting": "input ligand: FMN 200 uM", "result": 379, "unit": "nM"},
      {"measurement": "apparent KD of K4 kissing-loop reporter", "setting": "input ligand: arginine 13.2 mM", "result": 218, "unit": "nM"},
      {"measurement": "apparent KD of K4 kissing-loop reporter", "setting": "input ligand: none", "result": 230, "unit": "nM"},
      {"measurement": "apparent KD of K4 kissing-loop reporter", "setting": "[1]", "result": 249, "unit": "nM"},
      {"measurement": "apparent KD of K4 kissing-loop reporter", "setting": "[2]", "result": 183, "unit": "nM"}
    ]}
  ]
}
